Data on two sequences can be found in PMC10035508.

The target of this data set is PTBP1 (hsPTBP1) (Homo sapiens) (UniProt P26599). The experiment in a line: EMSA. The note with it: EMSA in RBB: 10 mM sodium cacodylate pH 7.0, 100 mM NaCl, 1 mM MgCl2, 1 mM DTT, 0.1 ug/uL BSA, 0.1 ug/uL yeast tRNA, 0.4 U/uL RNasin, 1 U/uL heparin ….
PTBP1 (hsPTBP1) (Homo sapiens), sequence (P26599 whole entry): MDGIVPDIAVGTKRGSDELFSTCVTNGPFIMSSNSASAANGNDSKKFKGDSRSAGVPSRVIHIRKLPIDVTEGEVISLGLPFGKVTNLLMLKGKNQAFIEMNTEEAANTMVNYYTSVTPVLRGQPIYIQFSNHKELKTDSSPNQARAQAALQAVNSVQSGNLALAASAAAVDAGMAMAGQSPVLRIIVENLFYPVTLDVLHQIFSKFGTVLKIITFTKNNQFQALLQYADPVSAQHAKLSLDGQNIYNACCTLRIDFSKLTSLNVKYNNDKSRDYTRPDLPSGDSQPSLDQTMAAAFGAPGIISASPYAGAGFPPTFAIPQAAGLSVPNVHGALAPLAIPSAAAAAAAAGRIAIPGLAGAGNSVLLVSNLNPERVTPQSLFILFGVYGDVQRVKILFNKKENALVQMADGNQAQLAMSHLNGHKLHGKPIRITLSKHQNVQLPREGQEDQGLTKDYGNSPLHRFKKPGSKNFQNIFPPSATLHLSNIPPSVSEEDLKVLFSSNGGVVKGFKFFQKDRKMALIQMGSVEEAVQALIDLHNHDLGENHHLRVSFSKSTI

For the sequence “GGGUCUCCUUUCAGCCUGCUUCAGGAAUGAGCUUGUGGAGCCCCGGAGAGAAACUCCAAAACAAUCUGACGUCUUCUUUAGACAUUCCAAGCCCCCAAACCGAUCAGUGUAC [FRAGT7]”, the binding entry was “no binding”.
The same measure for “GGGGUUCCUCCCCUCCAUCUUCCCACACCCAGUCACCAGCACUGUAUUUUCUGUCACCAAGACAAUGAUUUCUUGUUAUUGAGGCUGUUGCUUUUGUGGAUGUG [CPA1]”: “no binding”.
